Columns and labels:
[1] = target: SARS-CoV 스파이크 [change] (#40150-V08B1, Sino Biological) (SARS-CoV, UniProt P59594 14-667); assay: ELISA, coated S1-His
[2] = target: SARS-CoV-2 RBD-hFc (SARS-CoV-2, UniProt P0DTC2 319-541); assay: cell-based or functional assay
[3] = target: SARS-CoV-2 spike protein on live SARS-CoV-2 virus (SARS-CoV-2, UniProt P0DTC2 14-1273); assay: cell-based or functional assay
[4] = target: SARS-CoV RBD-His (#40150-V08B2, Sino Biological) (SARS-CoV, UniProt P59594 306-527); assay: ELISA, coated His-tagged antigen
[5] = target: T1, SARS-CoV-2 RBD-mFc (SARS-CoV-2, UniProt P0DTC2 319-541); assay: Octet QKe BLI, 1:1 global fit
T1 construct: range 319-541

[6] = target: T1, SARS-CoV-2 RBD-mFc; assay: competition ELISA: RBD-mFc on coated ACE2-His
[7] = target: T1, SARS-CoV-2 RBD-mFc; assay: flow cytometry competition: RBD-mFc on HEK293E/ACE2 cells
[8] = target: T2, SARS-CoV-2 스파이크 S1-mFc (SARS-CoV-2, UniProt P0DTC2 16-685); assay: competition ELISA: S1-mFc on coated ACE2-His
T2 construct: range 16-685

Binder	binding result [1]	IC50, 세포내 유입(internalization) 억제, HEK293E/ACE2-GFP [2]	IC50, live SARS-CoV-2 미세중화분석, Vero 세포 [3]	binding result [4]	Kd [5]	koff [5]	kon [5]	IC50 [6]	IC50 [7]	IC50 [8]
SA4057 (antibody, V domains shown) VH: EVQLVQSGGGLVQPGGSLRLSCAASVITVSSNYMSWVRQAPGKGLEWVSVIYPGGSTYYADSVKGRFTISRDKSKNTLYLQMNSLRAEDTAVYYCARDLDIVGGMDVWGQGTTVTVSS VL: QLVLTQPPSVSGAPGQRVTISCTGSSSNIGAPHDVHWYQQLPGTAPRLLIYANNNRPSGVPDRFSGSKSGTSASLAITGLQDEDEADYYCQSYDSSLRAYVFGTGTKVTVL	no binding (tested: 50 nM)	28.1 nM	37.5 nM	no binding	0.0284 nM	4.96e-06 s⁻¹	175000 M⁻¹ s⁻¹	4.81 nM	4.13 nM	
SA3830 (antibody, V domains shown) VH: QVQLVESGGGLIQPGRSLSLSCAASGFNFDEYSMHWVRQRPGKGLEWVSGIKYNSNTILYADSVKGRFTVSRDNSKNSLYLQMNSLRAEDTAVYYCARDAMRGGDFDHWGQGTLITVSS VL: DIQMTQSPSYLSASAGDRVTITCRASQSISDWLAWYQHKPGKAPKLLIYKASRLENGVPSRFRGSGSATDFTLTISSLQAEDVAVYYCQQYYSTTWTFGQGTKVDIK	no binding (tested: 50 nM)	13.5 nM	231 nM	no binding	0.782 nM	0.000702 s⁻¹	897000 M⁻¹ s⁻¹	10.2 nM	2.57 nM	1.86 nM
SA3856 (antibody, V domains shown) VH: QMQLVESGGGLIQPGGSLRLSCAASGFTVTSAYMSWVRQAPGKGLEWVSIIYGGGSTYYADSVKGRFTISRDNSKNTLYLQMNSLRAEDTAVYYCTGPYPGRYDYWGRGTLVTVSS VL: DIQMTQSPSSLSASVGDRVIITCRASQDIRTSLAWFQQRLGEAPRSLIYDASSLQNGVPSKFRGSGSGTDFTLTISSLQPEDFATYYCQQYKTVPLTFGGGTKVEIK	no binding (tested: 50 nM)	11.9 nM	137 nM	no binding	0.0888 nM	4.3e-05 s⁻¹	484000 M⁻¹ s⁻¹	25.1 nM	2.67 nM	2.11 nM
SA3902 (antibody, V domains shown) VH: QVQLVQSGAEVRQPGASVKVSCKTSGYAFSYYHIHWVRQAPGQGLEWMGLINPGSGGTNYAQKFQGRVTLTRDTSTSTVYMDLTGLRSEDTAVYYCAGSEQPHYYANGAYRVWGQGTLVTVSS VL: DIQMTQSPSTLSASVGDRVTITCRASQSISSYLNWYQQKPGKAPKLLIYEVSTLESGVPSRFSGSRSGTEFTLTISSLQPDDFATYYCQQYDTFGGGTKVEIK	no binding (tested: 50 nM)	14.9 nM	37.3 nM	no binding	0.328 nM	8.12e-05 s⁻¹	247000 M⁻¹ s⁻¹	12.4 nM	1.75 nM	3.85 nM
SA4040 (antibody, V domains shown) VH: EVQLVQSGAEVKKPGASVKVSCKASGYTFTGYYMHWARQAPGQGLEWMGWINPNSGGTNYAQKFQGRVTMTRDTSITTAYMELSRLTSDDTAVYYCARDQAFSMVRGVTDYWGQGTLVTVSS VL: QSALTQPPSASGSPGQSVIISCTGSSSDVGGYNYVAWYQQYPGAAPKLIISEVTKRPSGVPDRFSGSKSGNTASLTISGLQAEDEANYYCSSYAGDNTWIFGGGTKLTVL	no binding (tested: 50 nM)	30.8 nM	8.14 nM	no binding	0.384 nM	0.000181 s⁻¹	471000 M⁻¹ s⁻¹	25.3 nM	1.59 nM	3.1 nM
SA4043 (antibody, V domains shown) VH: QVQLQESGGGLVQPGGSLRLSCAASVITVSSNYMSWVRQAPGKGLEWVSVIYPGGSTYYADSVKGRFTISRDKSKNTLYLQMNSLRAEDTAVYYCARDLDIVGGMDVWGQGTTVTVSS VL: DIQMTQSPSTLSASVGDRVTITCRASQSISRWLAWYQQKPGQAPKLLIYAASTLQSGVPSRFSGSGSGTEFTLTISSLQPDDFATYYCQQYDSYPRTFGQGTKVDIK	no binding (tested: 50 nM)	12.8 nM	12.5 nM	no binding				1.76 nM	1.69 nM	1.43 nM
